# Source: US20260042831A1 (XENTRIA, published 2026)
# Where “and” joins values, the source holds several entries; their conditions need not be identical. Equal values may be shown once.
# T1: TNFα from rat (rat, UniProt P16599 80-235)
# T1 sequence (looked up): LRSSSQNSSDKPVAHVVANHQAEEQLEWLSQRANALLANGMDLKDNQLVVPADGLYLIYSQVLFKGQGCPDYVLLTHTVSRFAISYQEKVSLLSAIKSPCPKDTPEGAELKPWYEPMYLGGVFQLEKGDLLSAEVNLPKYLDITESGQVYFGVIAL
# How the values were obtained:
# FcγRI [1] = biological target: T2, FcγRI (UniProt P12314 16-288, limits assumed); test: Octet QK384, FcγRI on Ni-NTA biosensors; range stated for the batches
# T2 construct: It was immobilized on Ni-NTA biosensors, which implies a His tag; The ELISA paragraph calls it 'His tab-labeled recombinant purified FcγRI'; also called CD64
# His-tagged FcγRIIIa = biological target: T3, His-tagged FcγRIIIa (UniProt P08637 17-208, limits assumed); test: Octet QK384, steady-state KD from binding curves; range stated for the batches
# T3 construct: His-tagged and captured on anti-penta-His biosensors; also called CD16
# FcγRI [2] = biological target: T2, FcγRI; test: Octet QK384, FcγRI on Ni-NTA biosensors, 7 XTMAB-16 concentrations, 1:1 model fit
# [3] = biological target: TNFα from cynomolgus monkey (cynomolgus monkey, UniProt P79337 77-233, limits assumed); test: ELISA, cross-species binding studies
# TNFα from rhesus monkey = TNFα from rhesus monkey (rhesus monkey, UniProt P48094 77-233); test: ELISA, cross-species binding studies
# TNFα from rat = biological target: T1, TNFα from rat; test: ELISA, cross-species binding studies
# TNFα from dog = TNFα from dog (dog, UniProt P51742 77-233); test: ELISA, cross-species binding studies
# TNFα from dog, sequence (P51742 77-233 limits assumed): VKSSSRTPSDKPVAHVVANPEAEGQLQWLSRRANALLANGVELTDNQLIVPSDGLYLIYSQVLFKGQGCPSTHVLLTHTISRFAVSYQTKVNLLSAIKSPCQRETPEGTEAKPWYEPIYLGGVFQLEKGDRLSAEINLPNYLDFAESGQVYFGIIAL
# T2 sequence (P12314 16-288 limits assumed): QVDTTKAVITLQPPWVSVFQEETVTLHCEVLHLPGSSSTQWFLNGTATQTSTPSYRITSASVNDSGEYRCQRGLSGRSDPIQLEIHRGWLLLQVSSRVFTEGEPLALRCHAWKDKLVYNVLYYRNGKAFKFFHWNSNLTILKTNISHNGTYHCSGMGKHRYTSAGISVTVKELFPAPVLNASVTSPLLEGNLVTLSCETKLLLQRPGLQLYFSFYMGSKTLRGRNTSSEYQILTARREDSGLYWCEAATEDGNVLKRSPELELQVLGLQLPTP
# T3 sequence (P08637 17-208 limits assumed): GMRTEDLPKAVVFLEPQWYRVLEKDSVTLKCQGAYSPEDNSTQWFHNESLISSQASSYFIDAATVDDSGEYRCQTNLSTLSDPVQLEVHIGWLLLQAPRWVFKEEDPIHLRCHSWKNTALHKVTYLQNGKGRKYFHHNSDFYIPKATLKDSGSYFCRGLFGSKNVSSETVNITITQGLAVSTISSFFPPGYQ
# TNFα from rhesus monkey, sequence (P48094 77-233 limits assumed): as the sequence (P51742 77-233 limits assumed) above, with K2R, E21Q, S30N, I49V, D53E, T72N, F83I, T109A, N140D counted along it
# TNFα from cynomolgus monkey, sequence (P79337 77-233 limits assumed): as the sequence (P51742 77-233 limits assumed) above, with K2R, E21Q, S30N, L37V, I49V, D53E, T72N, F83I, T109A, N140D counted along it
binder,measurement,setting,value
"XTMAB-16 (antibody, human IgG1, kappa, The general description says the antibody is sialylated with N-acetylneuraminic acid (Asn 297 in embodiments) and glycosylated at Asn 300; All batches (A-H); also called XTMB-16) heavy: not shown light: DILLTQSPAILSVSPGERVSFSCRASQFVGSSIHWYQQRTNGSPRLLIKYASESMSGIPSRFSGSGSGTDFTLSINTVESEDIADYYCQQSHSWPFTFGSGTNLEVKRTVAAPSVFIFPPSDEQLKSGTASVVCLLNNFYPREAKVQWKVDNALQSGNSQESVTEQDSKDSTYSLSSTLTLSKADYEKHKVYACEVTHQGLSSPVTKSFNRGEC",Kd,FcγRI [1],0.5 nM and 0.9 nM
same,Kd,His-tagged FcγRIIIa,300 nM
same,Kd,FcγRI [2],0.68 nM and 0.63 nM
same,binding result,[3],no binding
same,binding result,TNFα from rhesus monkey,no binding
same,binding result,TNFα from rat,no binding
same,binding result,TNFα from dog,no binding
